“And” between values parts separate entries of the source, which are not always exact repeats. Identical values can stand only once.
Assays:
[1] = biological target: SARS-CoV-2 spike (D614) on pseudovirus (SARS-CoV-2, UniProt P0DTC2 14-1273); test: cell-based or functional assay
[2] = biological target: T1, SARS-CoV-RBD-hFc (SARS-CoV, UniProt P59594 306-527); test: phage ELISA, antigen coated at 5μg/ml, anti-M13 HRP detection
T1 construct: domain: RBD

B1: 4D8-hFc重组蛋白 (单域抗体4D8, purified) (Fc fusion, not shown: a dimerising Fc or GST)
chain: QVQLVQSGGGLVQPGGSLRLSCAASDFDFYDYEMSWVRQAPGKALEWIGEIHHSGSTYYNPSLKSRVTISRDNSKNTLYLQMNTLRAEDTAIYYCVKDFVGADGPFVFDYWGQGTLVTVSS
- 伪病毒中和 IC50 (Luciferase活性, CHO-ACE2细胞) [1]: 1.13 μg/ml and 15 nM

B2: 4D8克隆 (4D8噬菌体, phage-displayed single-domain antibody clone) (VHH)
VHH: QVQLVQSGGGLVQPGGSLRLSCAASDFDFYDYEMSWVRQAPGKALEWIGEIHHSGSTYYNPSLKSRVTISRDNSKNTLYLQMNTLRAEDTAIYYCVKDFVGADGPFVFDYWGQGTLVTVSS
notes: also called 富集克隆4D8
- binding result [2]: no binding
